Data as given in the DeepSol protein solubility set.

Assay: soluble on expression in E. coli; label from the status in PepcDB or PDB records
For “MSLAIEKELLDQLLAGRDPSEVFGKDGLLDDLKKALSERILNAELDDHLDVERLEGGPANRRNGSSKKTVLTGTSKMTLTIPRDRAGTFDPKLIARYQRRFPDFDDKIISMYARGMTVREIQGHLEELYGIDVSPDLISAVTDTVLEAVGEWQNRPLELCYPLVFFDAIRVKIRDEGFVRNKAVYVALAVLADGSKEILGLWIEQTEGAKFWLRVMNELKNRGCQDILIAVVDGLKGFPEAITAVFPQTIVQTCIVHLIRHSLEFVSYKDRRTVVPALRAIYRARDAEAGLKALEAFEEGYWGQKYPAIAQSWRRNWEHVVPFFAFPEGVRRIIYTTNAIEALNSKLRRAVRSRGHFPGDEAAMKLLYLVLNNAAEQWKRAPREWVEAKTQFAVIFGERFFNEGHHHHHH”, the “soluble on expression in E. coli” value was “soluble”.
In the case of “MRYTILTKGDSKSNALKHKMINHMKDFQMVEDSENPEIVISVGGDGTLLQAFHQYSHMLSKVAFVGIHTGHLGFYADWLPHEVEKLIIEINNSEFQVIEYPLLELIVRYNDNGYETRYLALNEATMKTENGSTLVVDVNIRGKHFERFRGDGLCISTPSGSTAYNKALGGALIHPSLEAMQIAEIASINNRVFRTVGSPLVLPKHHTCLITPVNHDTIRTTIDHVSIKHKNVNAIQYRVANEKVRFARFRPFPFWKRVHDSFISSDDERMAGDPLEHHHHHH”, the “soluble on expression in E. coli” value is reported as “soluble”.
For “MPKELWPLTGSRLEGSSMADRRRQRRTSKAGVGGRRVEYKRVPLGFIKAIVKTGHVVVEPSEKVRRNPPRGRFQVLLAGDGEVGYVSDVIGPINSPFIVVRVRERGVIEKLSPGAELIMLVPPKKPPRKGAPRRGSSRGRRGFKKGKARG”, the “soluble on expression in E. coli” value was “soluble”.
For “MTIDDSNRLLMDVDQFDFLDDGTAQLSNNKTDEEEQLYKRDPVSGAILVPMTVNDQPIEKNGDKMPLKFKLGPLSYQNMAFITAKDKYKLYPVRIPRLDTSKEFSAYVSGLFEIYRDLGDDRVFNVPTIGVVNSNFAKEHNATVNLAMEAILNELEVFIGRVKDQDGRVNRFYELEESLTVLNCLRTMYFILDGQDVEENRSEFIESLLNWINRSDGEPDEEYIEQVFSVKDSTAGKKVFETQYFWKLLNQLVLRGLLSQAIGCIERSDLLPYLSDTCAVSFDAVSDSIELLKQYPKDSSSTFREWKNLVLKLSQAFGSSATDISGELRDYIEDFLLVIGGNQRKILQYSRTWYESFCGFLLYYIPSLELSAEYLQMSLEANVVDITNDWEQPCVDIISGKIHSILPVMESLDSCTAAFTAMICEAKGLIENIFEGEKNSDDYSNEDNEMLEDLFSYRNGMASYMLNSFAFELCSLGDKELWPVAIGLIALSATGTRSAKKMVIAELLPHYPFVTNDDIEWMLSICVEWRLPEIAKEIYTTLGNQMLSAHNIIESIANFSRAGKYELVKS”, the “soluble on expression in E. coli” value was “soluble”.
For “MAHHHHHHMRVPSLPIIIDEFPALAGSRSHSGSGSGSELFFLTHFHTDHMKGLSSAWTAGLIITGTITRQLLLNKFEGLRGRVLGLPFWCRTPVLSAAGAAHSETDSTTATAVPVVHVTLLPAFHIPGSAMIYIETPSGVTYLHTGDFKYTEAAAQMSSLRTFFQSHRVDHLYLDDTWLHLGHTELKSWPALTESPLVGHRGVGIANSGIRVLSKLLDADQVEEAIEAIGRRMDYQRQLHAQWVQQQSQCDSNGTAEALTPSSSSSSASAELSDARLPFIVRVYLHNQFGKELLIQQLAARLRTRALIDDARYARLLTVVEALEEERDDLEAFEGADPARLDGAAPPLSAEELAWRASGGEAARYPYDLNCFVSCSQAQQQKQQQLWARWRYDRGAMSPQQPQPPADHSVKRSCGPPLIEVVRNRASIEPATLQAASAARGGTPYYGVVISGWARLQSQTHGPAASGQVWQVPTTLHSTPQEIVDFVALLRPLSVTPLHYRPSRGEVVMQRLGPYLRVPFVNNHDTGCGATTAATAGRDAVALRGGVVRWMPYLPAYLLLSQMGGSDSRSGLGTSTLLGMLGARDAAAVCDNGLDALEEKPPRGFRIRPAGLPLPSSKAAVAASRSGGEAPGGCDSHTAAITASYFFAPSPTTTTSLPAQGMADVSGKATNPTDTSVSSRVRADGLRISTLLPSWRLSHLTQSYLSTQQSGGKRERVDVEMDGQSMVAHRAERHAATATKIESGERAAKAANDHDKDCPAVLLSSSATTGLLSLSDIADNVLA”, the “soluble on expression in E. coli” value was “not soluble”.
For “MGSRSSHAAVIPDGDSIRRETGFSQASLLRLHHRFRALDRNKKGYLSRMDLQQIGALAVNPLGDRIIESFFPDGSQRVDFPGFVRVLAHFRPVEDEDTETQDPKKPEPLNSRRNKLHYAFQLYDLDRDGKISRHEMLQVLRLMVGVQVTEEQLENIADRTVQEADEDGDGAVSFVEFTKSLEKMDVEQKMSIRILKHHHHHH”, the “soluble on expression in E. coli” value was “soluble”.
In the case of “MKRFARKETIYLRGEEARTLYRLEEGLVRVVELLPDGRLITLRHVLPGDYFGEEALEGKAYRYTAEAMTEAVVQGLEPRAMDHEALHRVARNLARQMRRVQAYEAHLQTGELRARIARYLLFLADTPLSARDRQGIYVTVSHEEIADATASIRESVSKVLADLRREGLIATAYRRVYLLDLAALEREAGSALEAA”, the “soluble on expression in E. coli” value is reported as “soluble”.
For “MPGSLPPNGESSWPKDVGIVALEIYFPSQYVDQEELEKFDGVSAGKYTIGLGQSKMGFCSDREDINSLCLTAVQRLMERNNLSYDCIGRLEVGTETIIDKSKSVKTVLMQLFEESGNTDVEGIDTTNACYGGTAALFNAVNWVESSSWDGRYALVVAGDIAVYATGSARPTGGAGAVAMLVGPNATLVFERGLRGTHMQHAYDFYKPDMESEYPVVDGKLSIQCYLSALDHCYSTYRKKIHAQWQKEGTEKPFTLNDFGFMIFHSPYCKLVQKSFARLLVNDFISDSNPNTESGVYVGLDSFRDLKLEETYFDRDVEKAFLKASTELFNEKTKTSLLVSKENGNMYTPSVYGCLASVLAQYSPQQLAGQRIGVFSYGSGFAATLYSLRVSQDAMPGSSLDKLTSSLSDLKARLDSRKNVSPSIFADNMKLREDTHHLANYVPQGSVDDLFPGTWYLVRVDEKHRRFYARSSLMRDGPLDAAPESVHSSTANEHFPSPAKKVPRIPPAAEAEPISVTNGGH”, the “soluble on expression in E. coli” value was “soluble”.
In the case of “MARKRIITPEKKELIRNLISEYNITSAKDLQEALKDLLGDTIQNMLEAELDEHLGYEKYESTEEAKSNYRNGYTSKTLKSSVGQVEIDIPRDRNAEFEPKIVPRYKRDISEIENKIIAMYARGMSTREINEQIQEIYGFEVSAEMVSKITDKILPEIEEWQKRPLGEVIR”, the “soluble on expression in E. coli” value is reported as “soluble”.
With “MGHHHHHHSHMDWNKTYAAIYRARKDYLKPIFEIDPIALKDLVGMESQKKALYENTLNFIQDKGANHALLWGSKGTGKSSLIKAIFNEFKEQGLRLVELNKEDLFALADIIDEIRLENFKFILFCDDFSFEKGDDSYKFLKPLLEGSIEKAPNNVIIYASSNRRHLLSESITDNLDTQITHTELHLSDAAEERLSLSDRFG” the “soluble on expression in E. coli” value was “soluble”.
For “MAVGTEESDFEGWAFPFPGVMLIEDFVTREEEAELVRLMDRDPWKLSQSGRRKQDYGPKVNFRKQKLKTEGFCGLPSFSREVVRRMGLYPGLEGFRPVEQCNLDYCPERGSAIDPHLDDAWLWGERLVSLNLLSPTVLSMCREAPGSLLLCSAPSAAPEALVDSVIAPSRSVLCQEVEVAIPLPARSLLVLTGAARHQWKHAIHRRHIEARRVCVTFRELSAEFGPGGRQQELGQELLRIALSFQGRPVLEHHHHHH”, the “soluble on expression in E. coli” value was “soluble”.
For “MHHHHHHGHNSNLQDILAANAKWASQMNNIQPTLFPDHNAKGQSPHTLFIGCSDSRYNENCLGVLPGEVFTWKNVANICHSEDLTLKATLEFAIICLKVNKVIICGHTDCGGIKTCLTNQREALPKVNCSHLYKYLDDIDTMYHEESQNLIHLKTQREKSHYLSHCNVKRQFNRIIENPTVQTAVQNGELQVYGLLYNVEDGLLQTVSTYTKVTPK”, the “soluble on expression in E. coli” value was “soluble”.
In the case of “MAHHHHHHMCAKESCRAVNQGIRKECESCGTEKPQLLGWKCEGCSTINHAGVRKCKKCADASDKSKEFWMCAVCHENNRVDEIEDNSRCGFCGYDMAPHSVAEEEILRRATEKTVMLQQQQEHFDSVSYTEADEQFTNPLEGAEALDPSLRAIHPGSEAPITGRVLKLPAVAPFVAGGVPETRHSPLHQRRKVHPALQTVLEGATAPEGPPGFDWMCRDSSCGHINPGDEESCLKCGSHITPAEWEVPVMRVLEPPGTLALLLLQKPHSGLLDLQCVSGDDEHL”, the “soluble on expression in E. coli” value is reported as “not soluble”.
For “MNRQELITEALKARDMAYAPYSKFQVGAALLTKDGKVYRGCNIENAAYSMCNCAERTALFKAVSEGDTEFQMLAVAADTPGPVSPCGACRQVISELCTKDVIVVLTNLQGQIKEMTVEELLPGAFSSEDLHDERKL”, the “soluble on expression in E. coli” value was “soluble”.
In the case of “MGSDKIHHHHHHMQFDPPLQPAILLKRYKRFLADVVTPDGRELTLHCPNTGAMTGCAAPGDTVWYSTSDNAKRKYAHTWELTETQQGAVICVNTLRANSLAKEAISAGIIPELSGYNQLKSEVKYGEENSRIDIMLQADDRQNCYIEVKSVTLAEKEYGYFPDAVTTRGQKHLRELMAVAANGDRAVILFAVLHSAIDRFSPAHHIDARYAQLLTEAQDKGVEILAWKAELSTTRMTLNKPIAVVLNPGK”, the “soluble on expression in E. coli” value is reported as “not soluble”.
In the case of “TKDFIWNLSFNGTHYSNKILNLPEDKRENGIIHGTASLFRLMEGGSIYDLYTYEYAGVNPETGAAQWYMDEKDANGKVTGRTVTEDYTQASKYELGSTLPDFQGGFSTDFAYKGIDLSIATNFQIGGKIYDSMYSSFMHAGSNIGSNWHKDILNAWTPENKNTNVPIMDGAQNSNSQSSRFLINASFFNIRNISLGYTFPKEWMKAISASSARIYVSADNVALFSKRKGMDPRQYAYGYSAANYSAIRTLSFGINLNF”, the “soluble on expression in E. coli” value is reported as “not soluble”.
In the case of “MTTFSHSSTTPSVSVTTASGNNQSQLVATPVPDEQRISFWPQHFGLIPQWVTLEPRVFGWMDRLCEDYCGGIWNLYTLNNGGAFIAPEPDEDDGETWILFNAMNGNRAEMSPEAAGIAACLMTYSHHACRTECYAMTVHYYRLRDYALQHPECSAIMRIID”, the “soluble on expression in E. coli” value is reported as “not soluble”.
With “MFNLGSMFNLGPSEPVVGKASILLECPAGKAFKFIGENLFLNYPRWSPEVKELEQLTHGPVCLGTIARQVRVDQGHRSESKFRITIYEPDRRVAFAGISDPFRCVYELLDEQNSGSTRLLFKFELLEIQMIMRPFEPMIRTAVQDGAERTVQNIKRLVESEPGALEHHHHHH” the “soluble on expression in E. coli” value was “soluble”.
For “MAYHADSADLETKEILTWEGFGIANRELAQQIVDSNYTPDIIVAVARGGLVPAGALSYSMGIKLSDAINVEFYTDVNETLPDPVLLEPLLDTNSIRGKKVLVVDDVADSGRTLDLVLKLLENHGAEVRSAVIYAKSRSIVAPNYIWKRTDEWIVFPWSAEPPVTKA”, the “soluble on expression in E. coli” value was “not soluble”.
In the case of “MARSITMQQRIEFGDCNPAGIVWYPNYHRWLDAASRNYFIKCGLPPWRQTVVERGIVGTPIVSCNASFVCTASYDDVLTIETCIKEWRRKSFVQRHSVSRTTPGGDVQLVMRADEIRVFAMNDGERLRAIEVPADYIELCS”, the “soluble on expression in E. coli” value is reported as “soluble”.
